In the nanobody polyreactivity screen of Harvey et al. (2022):

Assay: yeast display, Sf9 membrane polyspecificity reagent, FACS + sequencing; frameworks hold sequencing errors
Summary of the method: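 A synthetic nanobody library was expressed on Saccharomyces cerevisiae BJ5465 by galactose induction for 36–48 hours. The library was stained for 1 hour at 4 °C with 10% biotinylated, detergent-solubilized Sf9 membrane reagent and enriched with streptavidin microbeads before FACS. Low and high (top ~1%) gates were set on anti-HA fluorescence for expression and streptavidin fluorescence for reagent binding, and each polyreactivity label reflects the gate of origin.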

Row | Sequence | polyreactivity (PSR sort gate)
1 | QVQLVESGGGLVQAGGSLRLSCAASGGIFFPNAIGWYRQAPGKERELVAAISWSAGSTYYADSVKGRFTISRDNAKNTVYLQMNSLKPEDTAVYYCAAAGSNYTVWYGYYYWGQGTQVTVSS | low polyreactivity
2 | QVQLVESGGGLVQAGGRLRLSCAASGRTFSKYGMGGYRQAPGKEREFVAAISSSGDSTTYADSVKGRFTISRDNAKNAVYLQMNSLKPEDTAVSYCARQTSRYTGGERAYGYWGQGTQVTVSS | low polyreactivity
3 | QVQLVESGGGLVQAGGSLRLSCAASGSTFYAYTMGWYRQAPGKERELVARISGRGGSTYYADSVKGRFTISRDIAKNTVYLQMNSLKPEDTAVYYCAARVYGTYRGIQYGYWGQGTQVTVSS | high polyreactivity
4 | QVQLVESGGGLVQAGGSLRLSCAASGSIDSKYTMGWYRQAPGKERELVAAIRGSGVRTYYADSVKGRFTISRDNAKNTVYLQMNSLKPEDTAVYYCAKVVYRGKVALWISSTAGSDYWGQGTQVTVSS | low polyreactivity
5 | QVQLVESGGGLVQAGGSLRLSCAASGFIFRRNAMGWYRQAPGKERELVAAIRQRGDSTYYADSVKGRFTISRDNAKNTVYLQMNSLKPEDTAVYYCATDHAYFHPEYDYWGQGTQVTVSS | low polyreactivity
6 | QLQLVESGGGLVQARGSLRLSCAASGYIFGSYAMGWDRQAPGKERELVAANSKSGGSTYYADSVKGRFTISRDYAKNTVYLQMNSLKPEDTAVYYCAAAGIGGGGWGQGTQVTVSS | low polyreactivity
7 | QVQLGESGGGLVQAGGSVRLSCAASGRTFDTNAMGWYRQAPGKERELVAAISWSAGRTYYADSVKGRFTISRDNAKNTVYLQMNSLKPEDTAVYYCAARPPFIAYSWQKHGYYWGQGTQVTVSS | low polyreactivity
8 | QVQLVESGGGLVQAGGSLRLICAASGRTFYYNAMGWYRQAPGKERELVAAINRGTGGTFYADSVKGRFTISRDNAKNTVYLQMNSLKPEDTAVYYCAADLDGSSEYEYWGQGTQVTVSS | low polyreactivity
9 | QVQLVESGGGLVQAGGSLRLSCAASGRIFYHNAMGWYRQAPGKERELVAAITWSGGSTYYADSVKGRFTISRDNAKNTVYLQMNSLKTDDTAVYYCNALSNRYYSKLGSWGQGTQVTVSS | high polyreactivity
10 | QVQLVESGGGLVQAGGSLRLSCAASGSTFVPNDMGWYRQAPGKERELVAAISYSGGSTYYADSVKGRFTISRDNAKNTVYLQMNSLKPEDTAVYYCAAEKYLGELDYWGQGTQVTVSS | low polyreactivity
11 | QVQLVESGGGLVQAGGSLRLSCAASGFTFTRYAMGWYRQAPGKERELVAVITYSGDTSYADSVKGRFTISRDNAKNTVYLQMNSLKPEDTAVYYCAVERAYYSDTGRYGYDYWGQGTQVTVSS | high polyreactivity
12 | QVQLVESGVGLVQAGGRLRLSCAASGSIFPTNAMGWYRQAPGKERELVAAISGSGGSTYYADSVKGRFTISRDNAKNTVYLQMNSLKPEDTAVYYCAVKPAPTRTTKRLVYGYNYWGQGTQVTVSS | high polyreactivity
13 | QVQLVESGGGLVQAGGSLRLSCAASGFIFYRYAMGWYRQAPGKERELVAAISYSGGSTYYADSVKGRFTISRDNAKNTVYLQMISLKPEDTAVYYCAAGSKYRYDYWGQGTQVTVSS | high polyreactivity
14 | QVQLVESGGGLVQAGGSLRLSCAASGRIFVNYAMGWYRQAPGKERELDAAITSDGSTSYADSVKGRFTISRDNAKNTVYLQMNSLKPEDTAVYYCAKDFFEHSPVSHTYSSSKYDYWGQGTQVTVSS | low polyreactivity
15 | QVQLVESGAGLVQAGGSLRLSCAASGITFGRYTMGWYRQAPGKERELVAAITNGDITYYADSVKGRFTISRDNAKNTVYLQMNSLKPEDTAVYYCAADRSFWYDYWGQGTQVTVSS | high polyreactivity
16 | QVQLVESGGGLVQAGGSLRLSCAASGFIFRRNAMGWYRQAPGKERELVAAIRFRSGSTYYAHSVKGRFTISRDNAKNTVYLQKNSLKPEDTAVYYCAADNKRSWRYAYNYWGQRTQVTVSS | high polyreactivity
17 | QVQLVESGGGLVQAGGSLRLTCAASGITFTSYVMGWYRQAPGKERELVAAIRWSGGRTYYADSVKGRFTISRDNAKNSVYLQMNSLKPEDTAVYYCNRVTRSHVDYWGQGTQVTVSS | high polyreactivity
